One block for each binder: values may come before it.
Molecular target: B7-H3 on Hs-700T pancreatic cancer cells (UniProt Q5ZPR3)
Assay: cell-based ELISA on fixed Hs-700T cells

EC50 (read off the curve): 0.03 µg/mL
B1: P1D1 full-length IgG1 antibody (antibody, V domains shown)
VH: QVQLVQSGAEVKKPGESLKISCKGSGYSFTSYWIGWVRQMPGKGLEWMGIIYPGDSDTRYSPSFQGQVTISADKSISTAYLQWSSLKASDTAMYYCARRSVAGLDYWGQGTLVTVSS
VL: KTVVTQPPSASGTPGQRVTISCSGSSSNIGSKYVYWYQQLPGTAPRLLIYRNNQRPSGVPDRFSGSKSGTSASLAISGLRSEDESDYYCASWDDRLKGYAFGTGTKVTVL

EC50 (read off the curve): 0.03 µg/mL
B2: P1G2 full-length IgG1 antibody (antibody, V domains shown)
VH: QVQLQQSGAEVKKPGSSVKVSCKASGGTFSSYAISWVRQAPGQGLEWMGRIIPILGIANYAQKFQGRVTITADKSTSTAYMELSSLRSEDTAVYYCAVNYYDSSGYYSDYWGQGTLVTVSS
VL: SYELTQPPSASGSPGQSVTISCTGTSSDVGGYNYVSWYQQHPGKAPRLMIYGVSQRPSGVPDRFSGSKSGNTASLTVSGLQAEDEADYYCSSYANNNYVFGTGTKVTVL
